From patent US20170210810A1, “BIOMARKER PROFILES FOR PREDICTING OUTCOMES OF CANCER THERAPY WITH ERBB3 INHIBITORS AND/OR CHEMOTHERAPIES” (Merrimack Pharmaceuticals, Inc., priority 2013, published 2017)

Tests used:
[1] = tested on: advanced, platinum-resistant ovarian cancer; test: Clinical trial in ovarian cancer: paclitaxel with or without MM-121 (Example 5); assay type: in vivo, human
Protocol: A clinical trial was performed that was designed to allow, inter alia, determination of associations between biomarker profiles and clinical responses. Biomarker data were measured in pre-treatment biopsies and (when available) in archived tumor samples. Results pertaining to predictive biomarkers measured in pre-treatment biopsies are described herein.
In total, six primary biomarkers were measured using 15 assays. For the 5 chromogenic assays (qIHC and RNA-ISH), two different overall scores were used: composite score and top-10 score. Accordingly, 20 different variables were assessed at this stage. A Cox proportional hazard model was used to rank the biomarkers. This method determines if PFS varies with biomarker values differently in the treatment arm relative to the control arm. A P-value cutoff of 0.4 was used to determine which biomarkers would be prioritized for subsequent bivariate analyses.
Based on these two thresholds, a biomarker profile positive (BM+) subpopulation is defined for subsequent analyses as: (ErbB2 levels≦log10 5.1) AND (HRG score≧1) (“ErbB2 low” AND “HRG positive”). Accordingly, a biomarker profile negative (BM−) subpopulation is defined as (ErbB2 levels >log10 5.1) OR (HRG score<1) This definition results in a BM+ prevalence of 34% in the clinical trial population.
In FIG. 8G (progression free survival at 10+ months) and FIG. 8H (overall survival at 10+ months), the treatment arm is represented by a blue line and the control arm is represented by a black line.

[2] = cited from earlier work
[3] = tested on: locally advanced or metastatic ER+ and/or PR+, HER2 negative breast cancer; test: Randomized, double-blind phase 2 trial of exemestane +/- MM-121 in breast cancer (Example 6)
Protocol: This population is for safety analyses, as well as the primary population for all efficacy parameters.
Analyses were performed on the five pre-specified primary biomarkers, all mechanistically linked to ErbB3 signaling, as measured in FFPE archived tissue blocks. Biomarkers were assessed based on local HR scans. Thresholds for defining biomarker profile positive populations were chosen based on these scans and on results obtained in the above-described ovarian cancer trial. A single two-variable model was assessed using HRG and ErbB2, based on the findings from the above-described ovarian cancer trial. HRs in the biomarker profile positive and negative populations were calculated using a Cox proportional hazard model that included biomarker groups by treatment and stratification factors as additive factors. Only patients with non-missing biomarkers were used in each calculation.
Both assays were performed using FFPE archived tissue blocks.
Biomarker profile positive (BM+) and biomarker profile negative (BM−) subpopulations were defined by dichotomizing biomarker values for HRG and ErbB2. For HRG, a cut point of −5 (RT-PCR score) was chosen based on the local HR scan (value at which HR=1). […] Two separate analyses of ErbB2 levels are provided: (1) ErbB2 levels based on the qIHC assay; and (2) for patients where qIHC data are missing, but HCT results were available, ErbB2 levels were adapted from the reported HCT results, with a score of HCT 2+ being deemed equal to log10(ErbB2)=5.1.
All efficacy analyses for the BM subgroups were performed using a Cox proportional hazard model that included both of the pre-specified strata as additive effects in combination with the treatment effect. The ErbB2 low & HRG high BM+ subpopulation was defined as patients with log10(ErbB2)≦5.1 and HRG RT-PCR>−5.

[4] = tested on: EGFR-wild-type non-small cell lung cancer (NSCLC)
Description: A group participating in the study was comprised of 132 patients with wild-type epidermal growth factor receptor (EGFR) who progressed on ≧1 platinum-based standard of care therapy and were EGFR tyrosine kinase inhibitor (TKI)-naïve. […] Data were collected at 10+ months.
BM+ patients were defined as having detectable HRG mRNA by RNA-ISH (RNA in situ hybridization) as described above in Example 1.

[5] = safety population, count (percentage)
[6] = best overall response, BM+ (heregulin+) as worded in FIG. 11 legend

In the case of `CC(=O)O[C@H]1C(=O)[C@@]2(C)[C@H]([C@H](OC(=O)c3ccccc3)[C@]3(O)C[C@H](OC(=O)[C@H](O)[C@@H](NC(=O)c4ccccc4)c4ccccc4)C(C)=C1C3(C)C)[C@]1(OC(C)=O)CO[C@@H]1C[C@@H]2O` [paclitaxel, Paclitaxel, reference compound], the “PFS of BM− (heregulin−) patients compared with BM+ (heregulin+) patients” value (from here on “PFS … compared with BM+ (heregulin+) patients”) ([1]; patients treated with paclitaxel alone (FIG. 8I)) is reported as “much longer”.

For `C=C1C[C@@H]2[C@H](CC[C@]3(C)C(=O)CC[C@@H]23)[C@@]2(C)C=CC(=O)C=C12` [exemestane, 6-methylenandrosta-1,4-diene-3,17-dione, reference compound], the “solubility in N,N-dimethylformamide” value ([2]; N,N-dimethylformamide) is listed as “freely soluble”, the solubility in methanol ([2]; methanol) is listed as “soluble” and the solubility in water ([2]; water) is listed as “practically insoluble”. For the same molecule, the objective response rate ([3]; BM+ patients) was 0%, the objective response rate ([3]; BM− patients) was 5.9% and the “time within which all treated patients exhibited disease progression” value ([3]; biomarker profile positive tumors (FIG. 10B)) was no more than 20 weeks. For the same molecule, the “PFS … compared with BM+ (heregulin+) patients” value ([3]; patients treated with exemestane alone (FIG. 10E)) was “much longer”, the “Subjects with CTCAE grade 3 or higher TEAE” value [3, 5] was 15 ( 25.4) and the “Subjects with TEAE leading to death” value [3, 5] was 1 ( 1.7). For the same molecule, the “Subjects with TEAE leading to dose discontinuation” value [3, 5] was 0, the “Subjects with TEAE related to study drug (a)” value [3, 5] was 32 ( 54.2) and the “Subjects with at least one AE” value [3, 5] was 51 ( 86.4). For the same molecule, the “Subjects with at least one TEAE” value [3, 5] was 50 ( 84.7) and the “Subjects with serious TEAE” value [3, 5] was 11 ( 18.6).

In the case of `C#Cc1cccc(Nc2ncnc3cc(OCCOC)c(OCCOC)cc23)c1` [erlotinib], the “complete response (CR)” value [4, 6] is reported as “none”, the “partial response (PR)” value [4, 6] is reported as 6.7% and the “progressive disease (PD)” value [4, 6] is reported as 53.3%. For the same molecule, the “PFS … compared with BM+ (heregulin+) patients” value ([4]; patients treated with erlotinib alone (FIG. 12C)) was “much longer”.

B1: MM-121: anti-ErbB3 monoclonal antibody having VH and VL sequences as shown in SEQ ID NOs: 1 and 2 (antibody, V domains shown)
VH: EVQLLESGGGLVQPGGSLRLSCAASGFTFSHYVMAWVRQAPGKGLEWVSSISSSGGWTLYADSVKGRFTISRDNSKNTLYLQMNSLRAEDTAVYYCTRGLKMATIFDYWGQGTLVTVSS
VL: QSALTQPASVSGSPGQSITISCTGTSSDVGSYNVVSWYQQHPGKAPKLIIYEVSQRPSGVSNRFSGSKSGNTASLTISGLQTEDEADYYCCSYAGSSIFVIFGGGTKVTVL
For B1, the “PFS versus erlotinib alone” value ([4]; unselected overall population (FIG. 12A)) was “overall better outcomes”, the “HR (trt:ctrl)” value ([1]; BM+, subgroup ErbB3 score ≧2) was 0.33 and the “HR (trt:ctrl)” value ([1]; BM+, subgroup ErbB4 score 0) was 0.13. For the same molecule, the “HR (trt:ctrl)” value ([1]; BM−, subgroup ErbB4 score ≧1) was 2.20, the “cumulative HR” value ([1]; patients with detectable levels of HRG and low levels of ErbB2) was less than 0.5 and the HR ([3]; Group ErbB2 < 5.1 (HCT), BM negative) was 3.00. It also gave an HR ([3]; Group ErbB2 < 5.1 (HCT), BM population) of 0.82, an HR ([3]; Group ErbB2 < 5.1 (HCT), BM positive) of 0.62 and an HR ([3]; Group ErbB2 < 5.1 (qIHC) & HRG > −5, BM negative) of 1.30. It also gave an HR ([3]; Group ErbB2 < 5.1 (qIHC) & HRG > −5, BM population) of 0.86, an HR ([3]; Group ErbB2 < 5.1 (qIHC) & HRG > −5, BM positive) of 0.32 and an HR ([3]; Group ErbB2 < 5.1 (qIHC), BM negative) of 3.00. The HR ([3]; Group ErbB2 < 5.1 (qIHC), BM population) was 1.16, the HR ([3]; Group ErbB2 < 5.1 (qIHC), BM positive) was 0.84 and the HR ([3]; Group HRG > −5, BM negative) was 0.99. For the same molecule, the HR ([3]; Group HRG > −5, BM population) was 0.68, the HR ([3]; Group HRG > −5, BM positive) was 0.35 and the “benefit (PFS) from adding MM-121 to exemestane therapy” value ([3]; biomarker negative patient population (FIG. 10A)) was “little if any benefit”. For the same molecule, the “benefit (PFS) from adding MM-121 to exemestane therapy” value ([3]; biomarker positive population (FIG. 10B)) was “dramatic benefit”, the “decrease in risk of death” value ([3]; full patient population, overall survival, vs standard-of-care arm) was 59% and the “decrease in risk of progression” value ([3]; heregulin-positive patients, n=34, final analysis) was 74%. The HR ([3]; no selection, BM population N=115) was 0.75.
